T1: His6-Hof1-C (amino acids 341–669) (S. cerevisiae, UniProt Q05080 341-669)
T1 sequence (looked up): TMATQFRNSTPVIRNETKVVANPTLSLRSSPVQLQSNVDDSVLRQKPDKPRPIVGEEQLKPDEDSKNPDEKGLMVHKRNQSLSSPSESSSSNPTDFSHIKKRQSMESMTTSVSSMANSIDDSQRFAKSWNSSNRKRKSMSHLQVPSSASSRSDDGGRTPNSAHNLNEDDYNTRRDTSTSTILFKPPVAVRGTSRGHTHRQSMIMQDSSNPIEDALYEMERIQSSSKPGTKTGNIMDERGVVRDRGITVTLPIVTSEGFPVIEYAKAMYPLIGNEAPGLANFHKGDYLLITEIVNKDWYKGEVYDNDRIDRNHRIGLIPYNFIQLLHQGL

B1: His6-tagged Cyk3 SH3 domain fragment (amino acids 1–70) (domain or fragment, S. cerevisiae, UniProt Q07533 1-70, looked up)
chain: MATNLTSLKPPFKVKARYGWSGQTKGDLGFLEGDIMEVTRIAGSWFYGKLLRNKKCSGYFPHNFVILLEE
B2: GST-Inn1-tail (amino acids 131–409), wild type (domain or fragment, S. cerevisiae, UniProt P53901 131-409, looked up)
chain: LTFTPKVPRLNRDDLNKEMDRLDSSMAMRPIPPLPTESEYDYVHGSTMRQITPQCVSTSHEDKDEGQPYRNGNVFSMSSKSDTAVLANSNDPIILPPTFSASMGTTSTLETNDTAISNTSNTKFHFANLRKLKEKINIFKNPDSSTNNCQNESNKVDIEALQKAIGVTSLSYDEDDDDDDENDAFYSSSHRVSHNYNQPPLPPIPTRDDMSNYSSSRNTPLVRRDRPSRLDSSSPNSHPHPSGLNSPKLPPLPTTSNSNFNSRKNSMSPTRKRPPPRLS

Columns and labels:
[1] = target: B2; experiment: pull-down
[2] = target: T1, His6-Hof1-C (amino acids 341–669); experiment: pull-down

binding result [1]	binding result [2]	Binder
binds	–	B1
–	binds	B2

From paper PMC2711614 (The Journal of Cell Biology, 2009)
